Measured values published in the supplement of paper PMC9170038.

System: MS2 coat protein
Experiment: apparent KD of MS2 coat protein; designed switch direction (-1 OFF switch, 1 ON switch): 1; higher = weaker reporter binding
Method in brief: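 RNA switches sharing common flanks were transcribed by stalled E. coli RNA polymerase on Illumina chips. A doubling series of SNAP-549-labelled MS2 coat protein, from 0.7 or 1.5 nM to 3 µM, was applied in Tris-HCl pH 7.5 buffer with KCl, MgCl2, BSA, DTT, tRNA and Tween-20. Each step lasted 0.8–1.5 h at the bottom of the series and 10–20 min at the top. Normalised cluster fluorescence was curve-fitted, giving apparent KD as the per-design median over clusters.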

[1] = Eterna round: R95, input ligand: FMN 200 uM
[2] = Eterna round: R95, input ligand: microRNA oligo, concentration not stated
[3] = Eterna round: R95, input ligand: none
[4] = input ligand: microRNA oligo, concentration not stated

Sequence | apparent KD of MS2 coat protein [1] [nM] | apparent KD of MS2 coat protein [2] [nM] | apparent KD of MS2 coat protein [3] [nM] | apparent KD of MS2 coat protein (input ligand: FMN 200 uM) [nM] | apparent KD of MS2 coat protein [4] [nM] | apparent KD of MS2 coat protein (input ligand: none) [nM]
UCUUGGUUUUUGCUCGUUUUUUGUGUUGAACAUGAGGAUCACCCAUGUAUUGUACAAUCCAGUUUAAUAAUGGUCCG [JMF 49] (puzzle: Sensor for hsa-mir-208a) | 105 | 87.3 | 130 | – | – | –
UCUUGGUUUUUGCUCGUUUUUUGUGUUGAACAUGAGGAUCACCCAUGUAUUGUACGGUCCAGUUUGGUGGUAGUCCG [JMF 71] (puzzle: Sensor for hsa-mir-208a) | 32.9 | 24.4 | 38 | – | – | –
UCUUGGUUUUUGCUCGUUUUUUGUGUUGAACAUGAGGAUCACCCAUGUAUUGUACGGUCCGAUUUAAUGAUGGUCCA [JMF 39] (puzzle: Sensor for hsa-mir-208a) | 32.4 | 19.7 | 34.1 | – | – | –
UGAAUGGUGAUAGGAUAUACAUGAGGAAUCCUCGUAGAAGGAUCACGACAUGAGGAUCACCCAUGUAGCCGUCCGUAGACGGCA [JL SSNG1 1.23] (Eterna round: R96, puzzle: Same State NG 1) | – | – | – | 99.7 | 778 | 242
UGACACACGGCAGGAUAUCCUUAGCAAAGCUAAGGAGAAGGGCCUCAUGUCGUGGAAACGUGACAUGAGGAUCACCCAUGUCGC [Omei SS(NG)1 Cv8] (Eterna round: R96, puzzle: Same State NG 1) | – | – | – | 58.7 | 5.65 | 34.1
UGAGCCGGCACUGAGGAUAUUCAUAUUAAAACAUGAGGAUCACCCAUGUAGGCCAGAAGGCCUUGGGAGAAGGCAGGUCGGCUCA [Mat - Same State 2 - Mod of UCT - D62] (Eterna round: R96, puzzle: Same State 2) | – | – | – | 19.5 | 190 | 311
UGAGCCGGCACUGAGGAUAUUCAUAUUAAAACAUGAGGAUCACCCAUGUAGGCCAGAAGGCCUUGGGAGAAGGCAGGUCGGCUCA [Mat - Same State 2 - Mod of UCT - D62] (puzzle: Same State 2) | – | 200 | – | – | – | –
UGCCAUUGUAUAUUGGUGCAAGCUUUUUGACAUGAGGAUCACCCAUGUACUCGUCUUAUGUGCAGUCCGUAGACUGC [JL-shm-2.23 Brourd mod] (puzzle: Sensor for hsa-mir-208a) | 24 | 13.5 | 22.8 | – | – | –
UGCUAUUGUAUAUUGGUGCAAGCUUUUUGACAUGAGGAUCACCCAUGUACUCGUCUUUAGCGCAGUCCGUAGACUGC (puzzle: Sensor for hsa-mir-208a) | 52.4 | 13.5 | 56.6 | – | – | –
UGCUGUGUGGUAGGAUAUGUAGGAUAUGUACAUGAGGAUCACCCAUGUCAGUUAAUGACAGAAGGAUAGAAGGACCAGAGGGCU [pwkr ssNG2 2FMN 1F5s.3] (Eterna round: R96, puzzle: Same State NG 2) | – | – | – | 254 | 205 | 249
UGGAGAAGUCAAGGAUAUGCUACCGUUUCGGUAGCAGAAGGUGAUCACAUGAGGAUCACCCAUGUAUGCAUGCGUGAGCGUGCU [JL SSNG1 3.55] (Eterna round: R96, puzzle: Same State NG 1) | – | – | – | 337 | 15.2 | 125
UGGAUCUAGGCUUGCCUGGGUCCAUGUUGACAUGAGGAUCACCCAUGUGUUUUUUUUUUGCUUUUUGUUUGUCAACA [JL A Humble Attempt mod 3] (puzzle: Sensor for hsa-mir-208a) | 19.1 | 12.3 | 21.7 | – | – | –
UGGCUCAGACGAGGAUAUAUGCGAUCACAUGAGGAUCACCCAUGUCUCGAGCUUCGGCUCGAGGCAUAGAAGGCGUCUGAGCCU [SSNG2/4-A3] (Eterna round: R96, puzzle: Same State NG 2) | – | – | – | 13 | 25.9 | 27.7
UGGCUCAGACGAGGAUAUAUGUAAUAACAUGAGGAUCACCCAUGUGUCGAGCUUCGGCUCGACACAUAGAAGGCGUCUGAGCCA [SSNG2/2-A2] (Eterna round: R96, puzzle: Same State NG 2) | – | – | – | 14.7 | 17.9 | 28.2
